{"source": "IntAct's records for PubMed 22307056"}
{"molecular_target": "mk03_mouse Mapk3 (UniProt Q63844)", "sequence (Q63844 whole entry)": "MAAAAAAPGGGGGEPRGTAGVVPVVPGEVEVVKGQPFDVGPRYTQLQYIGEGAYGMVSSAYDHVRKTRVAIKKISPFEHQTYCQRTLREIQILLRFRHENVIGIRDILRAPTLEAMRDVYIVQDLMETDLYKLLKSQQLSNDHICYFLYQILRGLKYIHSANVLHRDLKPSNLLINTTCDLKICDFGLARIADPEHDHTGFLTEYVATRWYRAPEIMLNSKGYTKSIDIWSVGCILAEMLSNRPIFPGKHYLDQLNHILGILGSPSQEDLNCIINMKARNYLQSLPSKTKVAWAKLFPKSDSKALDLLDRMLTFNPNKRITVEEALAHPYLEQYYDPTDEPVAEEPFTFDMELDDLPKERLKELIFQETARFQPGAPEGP"}
{"substance": "Krueppel-like factor 4 (Mus musculus), Q60793 L89A;R91A;R92A", "effect of a mutation on the interaction": "disrupting interaction strength"}
{"substance": "Krueppel-like factor 4 (Mus musculus), Q60793 L89A;R91A;R92A;L101A;L103A", "effect of a mutation on the interaction": "disrupting interaction strength"}
{"substance": "Krueppel-like factor 4 (Mus musculus), Q60793 L101A;L103A", "effect of a mutation on the interaction": "decreasing interaction strength"}
{"molecular_target": "fbw1b_human FBXW11 (UniProt Q9UKB1)", "sequence (Q9UKB1 whole entry)": "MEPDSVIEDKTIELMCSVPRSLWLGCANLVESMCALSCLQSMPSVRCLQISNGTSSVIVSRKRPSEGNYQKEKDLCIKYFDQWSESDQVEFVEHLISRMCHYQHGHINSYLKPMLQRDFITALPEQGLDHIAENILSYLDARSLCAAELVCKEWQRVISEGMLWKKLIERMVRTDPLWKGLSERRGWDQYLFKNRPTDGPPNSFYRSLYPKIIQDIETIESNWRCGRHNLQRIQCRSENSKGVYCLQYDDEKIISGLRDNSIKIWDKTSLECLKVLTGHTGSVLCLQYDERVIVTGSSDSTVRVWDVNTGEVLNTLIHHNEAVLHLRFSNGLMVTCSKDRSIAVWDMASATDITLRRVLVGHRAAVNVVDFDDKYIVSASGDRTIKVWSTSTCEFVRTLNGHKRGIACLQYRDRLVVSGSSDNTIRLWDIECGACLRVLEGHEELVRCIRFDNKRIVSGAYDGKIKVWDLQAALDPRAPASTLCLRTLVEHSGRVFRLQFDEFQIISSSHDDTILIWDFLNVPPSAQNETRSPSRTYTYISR"}
{"substance": "Krueppel-like factor 4 (Mus musculus), Q60793 S132A", "effect of a mutation on the interaction": "decreasing interaction strength"}
{"substance": "Krueppel-like factor 4 (Mus musculus), Q60793 S136A", "effect of a mutation on the interaction": "decreasing interaction strength"}
{"substance": "Krueppel-like factor 4 (Mus musculus), Q60793 S140A", "effect of a mutation on the interaction": "decreasing interaction strength"}
